Results on one molecule are retold here after publication PMC8855868.

This data set addresses MeCP2 (human, UniProt P51608 1-486). Nature of the data set: MST.

Chain of MeCP2 (P51608 whole entry): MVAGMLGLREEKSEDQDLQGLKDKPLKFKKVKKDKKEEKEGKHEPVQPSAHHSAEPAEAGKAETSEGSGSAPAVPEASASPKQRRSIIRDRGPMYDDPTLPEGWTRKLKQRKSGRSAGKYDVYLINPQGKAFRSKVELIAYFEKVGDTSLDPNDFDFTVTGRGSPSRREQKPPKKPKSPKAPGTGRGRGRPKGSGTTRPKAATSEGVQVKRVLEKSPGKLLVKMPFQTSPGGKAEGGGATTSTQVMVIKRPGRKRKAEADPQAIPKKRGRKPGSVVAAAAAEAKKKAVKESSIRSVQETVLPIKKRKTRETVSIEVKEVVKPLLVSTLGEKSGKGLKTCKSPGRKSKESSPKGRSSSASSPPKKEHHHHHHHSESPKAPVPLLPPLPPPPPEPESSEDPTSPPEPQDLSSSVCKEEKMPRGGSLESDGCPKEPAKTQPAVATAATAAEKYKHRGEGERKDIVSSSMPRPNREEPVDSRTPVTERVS

B1: 20 bp mC (dsDNA)
DNA 1: ACTACCATCCGGACCAGAAG
DNA 2: CTTCTGGTCCGGATGGTAGT
modifications: 5mC at position 10 of strand 1 and position 10 of strand 2 (printed as X)
As for B1, the binding result was “binds”.
